In patent US20250011456A1, “ANTIBODIES AGAINST CD14 AND USES THEREOF” (Villanelle Life Science Inc, priority 2023, published 2025):
Values joined by “and” are separate entries in the source; they are usually repeats but may differ in a detail not shown here. Equal values may be shown once.

Assays:
[1] = Mouse weight under anti-CD14-IgG1 dosages of Example 7 (PDX mice); type: in vivo
Method: To evaluate concentrations for the anti-CD14-IgG1 antibody, PDX mice were treated with five different concentrations of the IgG1 antibody over a period of 28 days. For these experiments, drug administration on the PDX mice was performed intravenously on alternating 4 days and 3 days.
The five different concentrations of the anti-CD14-IgG1 antibody tested include 5 mg/kg, 10 mg/kg, 15 mg/kg, 25 mg/kg, and 40 mg/kg. A control regimen was utilized as a comparative example. […] The non-specific IgG1 has no binding affinity to antigen. […] Tumor weight and tumor volume were calculated as described above.

[2] = biological target: T1, recombinant human CD14 (B294801, histidine tagged) (Homo sapiens, UniProt P08571); assay: Biacore 8K kinetic and affinity test of humanized antibodies (Example 8); type: binding; details: Biacore 8K, analyte B294801 0.78125-25 nM, capture 1 μg/mL
T1 construct: His; purchased Shanghai BaiYing Biotechnology Co., Ltd B294801 (Batch number 20200518A22)
T1 sequence (P08571 20-345): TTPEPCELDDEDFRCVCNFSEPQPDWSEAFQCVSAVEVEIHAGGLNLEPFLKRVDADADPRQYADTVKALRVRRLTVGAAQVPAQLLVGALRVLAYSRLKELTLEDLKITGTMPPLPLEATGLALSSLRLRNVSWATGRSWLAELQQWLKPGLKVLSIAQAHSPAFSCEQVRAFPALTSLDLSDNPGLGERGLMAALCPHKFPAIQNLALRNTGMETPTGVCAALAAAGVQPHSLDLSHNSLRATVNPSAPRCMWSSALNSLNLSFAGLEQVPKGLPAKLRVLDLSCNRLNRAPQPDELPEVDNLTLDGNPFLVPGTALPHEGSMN
Method: Experimental reagents and consumables included Protein A chip (Cytiva, 29127556). Main instruments and equipment included Biacore 8K (Cytiva), shaker (Taicang Huamei), ELISA system (Molecular Devices), centrifuge (Baiyang), ultrapure water system (Millipore), and thermostatic incubator (BLUE PARD).
The antigen used for the binding affinity measurements is B294801. This antigen is a recombinant human CD14 antigen that is histidine tagged and has a molecular weight of 36 kDa. B294801 was purchased from Shanghai BaiYing Biotechnology Co., Ltd (name: Recombinant Human CD14/His Protein; Batch number 20200518A22). D6DD3D001 is a mouse antibody, and D6DD3D002-D6DD3D0016 are humanized antibodies. The antibodies are recombinant, human (hFc Tag). Selected parameters of the experimental samples are shown in Table 8-1, with MW referring to molecular weight in kiloDaltons (kDa).
The Biacore 8K platform was used to test the kinetic and affinity properties of the antibody. The operation was carried out according to the system instructions and indications.
The equilibrium dissociation constant (KD) reflects the affinity of the antibody to the target, with a smaller value indicating a stronger affinity. KD (in units of molarity) is determined by the ratio of the dissociation rate constant (koff) and the association rate constant (kon), that is, KD=Koff/kon.
15 humanized antibodies (numbered D6DD3D002-D6DD3D0016) and 1 mouse antibody (number D6DD3D001) were tested. For the experiments, the analyte solution comprises the B294801 antigen with an analyte concentration of 0.78125 nM, 1.5625 nM, 3.125 nM, 6.25 nM, 12.5 nM, and 25 nM. The capture concentration was 1 μg/mL. In Table 8-3, the change factor is the ratio of the equilibrium dissociation constant KD of the humanized to mouse antibody, and reflects the change in affinity after humanization.

[3] = biological target: T2, human CD14 antigen (B294801, histidine tagged) (Homo sapiens, UniProt P08571); assay: Biacore 8K kinetic and affinity test of antibodies without PTM sites (Example 9); type: binding; details: Biacore 8K, analyte B294801 0.1953125-25 nM, capture conc. 1 μg/mL
T2 construct: His; purchased Shanghai BaiYing Biotechnology Co., Ltd B294801 (Batch number 20200518A22)
T2 sequence (P08571 20-345): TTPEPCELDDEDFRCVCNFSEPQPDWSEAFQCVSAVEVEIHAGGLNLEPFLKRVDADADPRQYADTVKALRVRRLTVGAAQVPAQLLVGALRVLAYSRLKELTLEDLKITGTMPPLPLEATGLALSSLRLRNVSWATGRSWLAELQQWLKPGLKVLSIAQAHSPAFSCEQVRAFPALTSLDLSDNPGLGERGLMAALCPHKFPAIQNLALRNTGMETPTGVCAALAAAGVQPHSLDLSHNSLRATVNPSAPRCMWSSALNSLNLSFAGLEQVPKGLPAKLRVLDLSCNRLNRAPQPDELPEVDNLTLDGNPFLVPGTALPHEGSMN
Method: Experimental reagents and consumables included cell culture fluid, electroporation buffer, CHO cells, 1 mL electroporation cuvette, Protein A chip (Cytiva, 29127556), various sizes of shake flasks, and various sizes of pipettes. Main instruments and equipment included a shaker (Taicang Huamei), centrifuge (Baiyang), ultrapure water system (Millipore), constant temperature incubator (BLUE PARD), electroporator, water bath, Biacore 8K (Cytiva), and ELISA system (Molecular Devices).
The antigen used for the binding affinity measurements is B294801. This antigen is a human CD14 antigen that is histidine tagged. D6DD3D001 is a mouse antibody, and MPDDAD001-MPDDAD005 are humanized antibodies. The antibodies are recombinant, human (hFc Tag). Selected parameters of the experimental samples are shown in Table 9-1, with MW referring to molecular weight in kDa.
The Biacore 8K platform was used to test the kinetic and affinity properties of the antibody, operating according to system instructions and indications.
Results of Affinity Detection. The affinity of the six antibodies was measured at saturation concentration. For the experiments, the analyte solution comprises the B294801 antigen with an analyte concentration of 0.1953125 nM, 0.390625 nM, 0.78125 nM, 1.5625 nM, 3.125 nM, 6.25 nM, 12.5 nM, and 25 nM. Change factor is described above.

B1: D6DD3D001: mouse-derived anti-CD14 IgG1 antibody; VH SEQ ID NO: 1, VL SEQ ID NO: 3, heavy chain SEQ ID NO: 2, light chain SEQ ID NO: 4 (antibody)
heavy: DVQLQQSGPGLVKPSQSLSLTCTVTGYSITSDSAWNWIRQFPGNRLEWMGYISYSGSTSYNPSLKSRISITRDTSKNQFFLQLNSVTTEDTATYYCVRGLRFAYWGQGTLVTVSSPSVFLFPPKPKDTLMISRTPEVTCVVVDVSHEDPEVKFNWYVDGVEVHNAKTKPREEQYNSTYRVVSVLTVLHQDWLNGKEYKCKVSNKALPAPIEKTISKAKGQPREPQVYTLPPSREEMTKNQVSLTCLVKGFYPSDIAVEWESNGQPENNYKTTPPVLDSDGSFFLYSKLTVDKSRWQQGNVFSCSVMHEALHNHYTQKSLSLSPGK
light: DIVLTQSPASLAVSLGQRATISCRASESVDSYVNSFLHWYQQKPGQPPKLLIYRASNLQSGIPARFSGSGSRTDFTLTINPVEADDVATYYCQQSNEDPYTFGGGTKLEIKRTVAAPSVFIFPPSDEQLKSGTASVVCLLNNFYPREAKVQWKVDNALQSGNSQESVTEQDSKDSTYSLSSTLTLSKADYEKHKVYACEVTHQGLSSPVTKSFNRGEC
In the case of B1, the “Mouse Weight” value ([1]; Day 21, IgG1 (10 mg/kg), per mouse 1-5, 10 mg/kg) is reported as 21.25 g and 21.16 g and 20.97 g and 21.13 g and 21.28 g, the “Mouse Weight” value ([1]; Day 21, IgG1 (15 mg/kg), per mouse 1-5, 15 mg/kg) is reported as 20.6 g and 21.12 g and 21.33 g and 20.4 g and 21.98 g and the “Mouse Weight” value ([1]; Day 21, IgG1 (25 mg/kg), per mouse 1-5, 25 mg/kg) is reported as 21.3 g and 22.05 g and 21.54 g and 20.62 g and 21.57 g. For the same molecule, the “Mouse Weight” value ([1]; Day 25, IgG1 (5 mg/kg), per mouse 1-5, 5 mg/kg) was 22.45 g and 21.06 g and 21.98 g and 22.14 g and 22.16 g, the “Mouse Weight” value ([1]; Day 25, IgG1 (10 mg/kg), per mouse 1-5, 10 mg/kg) was 22.27 g and 22.35 g and 21.64 g and 20.37 g and 22.93 g and the “Mouse Weight” value ([1]; Day 25, IgG1 (15 mg/kg), per mouse 1-5, 15 mg/kg) was 22.28 g and 21.01 g and 22.42 g and 20.52 g and 22.73 g. The “Mouse Weight” value ([1]; Day 25, IgG1 (25 mg/kg), per mouse 1-5, 25 mg/kg) was 22.17 g and 21.73 g and 22.39 g and 21.5 g and 20.56 g, the “Mouse Weight” value ([1]; Day 28, IgG1 (5 mg/kg), per mouse 1-5, 5 mg/kg) was 22.42 g and 23.8 g and 22.04 g and 21.81 g and 21.72 g and the “Mouse Weight” value ([1]; Day 28, IgG1 (10 mg/kg), per mouse 1-5, 10 mg/kg) was 22.71 g and 23.8 g and 21.44 g and 22.24 g and 21.16 g. For the same molecule, the “Mouse Weight” value ([1]; Day 28, IgG1 (15 mg/kg), per mouse 1-5, 15 mg/kg) was 22.57 g and 21.49 g and 23.11 g and 21.72 g and 23.44 g, the “Mouse Weight” value ([1]; Day 28, IgG1 (25 mg/kg), per mouse 1-5, 25 mg/kg) was 22.62 g and 23.62 g and 22.69 g and 21.64 g and 23.4 g and the “Mouse Weight” value ([1]; IgG1 40 mg/kg group, Day 0, individual mice 1-5, 40 mg/kg) was 20.64 g and 20.79 g and 20.06 g and 20.43 g and 19.66 g. For the same molecule, the “Mouse Weight” value ([1]; IgG1 40 mg/kg group, Day 4, individual mice 1-5, 40 mg/kg) was 20.37 g and 20.71 g and 19.79 g and 20.56 g and 20.73 g, the “Mouse Weight” value ([1]; IgG1 40 mg/kg group, Day 7, individual mice 1-5, 40 mg/kg) was 20.29 g and 20.01 g and 20.53 g and 21.04 g and 20.66 g and the “Mouse Weight” value ([1]; IgG1 40 mg/kg group, Day 11, individual mice 1-5, 40 mg/kg) was 20.49 g and 21.74 g and 20.21 g and 21.3 g and 20.92 g. For the same molecule, the “Mouse Weight” value ([1]; IgG1 40 mg/kg group, Day 14, individual mice 1-5, 40 mg/kg) was 21.19 g and 20.75 g and 20.83 g and 20.91 g and 20.61 g, the “Mouse Weight” value ([1]; IgG1 40 mg/kg group, Day 18, individual mice 1-5, 40 mg/kg) was 21.32 g and 21.28 g and 21.36 g and 20.36 g and 21.14 g and the “Mouse Weight” value ([1]; IgG1 40 mg/kg group, Day 21, individual mice 1-5, 40 mg/kg) was 21.75 g and 20.47 g and 21.5 g and 21.64 g and 21.77 g. For the same molecule, the “Mouse Weight” value ([1]; IgG1 40 mg/kg group, Day 25, individual mice 1-5, 40 mg/kg) was 22.33 g and 21.23 g and 22.07 g and 21.9 g and 22.06 g, the “Mouse Weight” value ([1]; IgG1 40 mg/kg group, Day 28, individual mice 1-5, 40 mg/kg) was 23.59 g and 23.7 g and 22.4 g and 21.39 g and 22.91 g and the “koff (1:1 binding)” value [2] was 0.000858 s⁻¹. The “kon (1:1 binding)” value [2] was 1.77e+06 M⁻¹ s⁻¹, the Koff [3] was 0.00108 s⁻¹ and the “kon (1:1 binding)” value [3] was 1.25e+06 M⁻¹ s⁻¹.
